Assay results from the supplement of paper PMC7125110.
± gives the standard error. Variants at the floor of the assay were thinned out.

B1: glmS ribozyme (parent)
chain: AUAAAAGCGCCAGAACUACAGAAAUGUAGUUGACGAGGAGGAGGUUUAUCGAAUUUUCGGCGGAUGCCUCCAAA

How the values were obtained:
Settings in all cases: with glucosamine-6-phosphate
glucosamine-6-phosphate [1] = variants of: B1; test: self-cleavage kobs at 40 uM GlcN6P; higher = faster cleavage; RNA array
Outline: (§1)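 In situ transcription by E. coli RNA polymerase produced barcoded ribozyme variants on sequenced MiSeq chips, and a hybridised Cy3 probe tracked them at 37 °C. Glucosamine-6-phosphate was flowed in at 40 μM to 10 mM in HEPES/KCl/Mg(OAc)2 buffer. kcat and KM were taken from weighted Michaelis–Menten fits of kobs values from exponential decay fits.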

glucosamine-6-phosphate [2] = variants of: B1; test: self-cleavage kobs at 160 uM GlcN6P; higher = faster cleavage; RNA array
Outline: as §1

glucosamine-6-phosphate [3] = variants of: B1; test: self-cleavage kobs at 10000 uM GlcN6P; higher = faster cleavage; RNA array
Outline: as §1

glucosamine-6-phosphate [4] = variants of: B1; test: self-cleavage kobs at 640 uM GlcN6P; higher = faster cleavage; RNA array
Outline: as §1

glucosamine-6-phosphate [5] = variants of: B1; test: self-cleavage kobs at 2500 uM GlcN6P; higher = faster cleavage; RNA array
Outline: as §1

Row | Variant | self-cleavage kobs at 40 uM GlcN6P (glucosamine-6-phosphate [1]) [s⁻¹] | self-cleavage kobs at 160 uM GlcN6P (glucosamine-6-phosphate [2]) [s⁻¹] | self-cleavage kobs at 10000 uM GlcN6P (glucosamine-6-phosphate [3]) [s⁻¹] | self-cleavage kobs at 640 uM GlcN6P (glucosamine-6-phosphate [4]) [s⁻¹] | self-cleavage kobs at 2500 uM GlcN6P (glucosamine-6-phosphate [5]) [s⁻¹]
1 | A42U C71G | < 1e-05 | < 1e-05 | 3.51e-05 ± 1e-05 |  | 
2 | G40U A48G G63U | < 1e-05 | < 1e-05 | < 1e-05 | < 1e-05 | 
3 | G43C C58A | < 1e-05 | < 1e-05 | < 1e-05 | < 1e-05 | < 1e-05
4 | G41U U46G C67U | < 1e-05 | < 1e-05 |  | < 1e-05 | 
5 | G40A U46G | 4.29e-05 ± 1.2e-05 |  | 0.00152 ± 0.00029 |  | 0.000841 ± 0.00023
6 | G40C U49A | < 1e-05 |  | < 1e-05 | < 1e-05 | 
7 | G40C U49C | < 1e-05 |  | < 1e-05 | < 1e-05 | < 1e-05
8 | G41C A48U | < 1e-05 | < 1e-05 |  | < 1e-05 | 
9 | G41C U49G A53G | < 1e-05 |  |  |  | 
10 | A42G U46C A48U | < 1e-05 |  |  |  | 
11 | G41C C50G | < 1e-05 | < 1e-05 | < 1e-05 | < 1e-05 | < 1e-05
12 | G41C C50U | < 1e-05 |  | < 1e-05 | < 1e-05 | < 1e-05
13 | A42G G60A U65G | < 1e-05 |  |  |  | < 1e-05
14 | A39G C68G | 2.98e-05 ± 1.4e-05 | 6.43e-05 ± 1.3e-05 | 0.000116 ± 1.2e-05 | 0.000165 ± 5e-05 | 0.000286 ± 4.7e-05
15 | G40U A53U C58A G62U | < 1e-05 |  |  |  | 
16 | G41C | 1.75e-05 ± 1.7e-06 | 4.15e-05 ± 1.9e-06 | 0.00255 ± 0.00067 | 0.000131 ± 3.6e-06 | 0.000529 ± 4.7e-05
17 | G40U G60C | < 1e-05 | < 1e-05 | < 1e-05 |  | < 1e-05
18 | G43A G44A G51A C58A | < 1e-05 |  | < 1e-05 |  | 
19 | A42C G63A C67G | < 1e-05 |  |  |  | 
20 | G40C U54C | 8.26e-05 ± 2.6e-05 |  | 0.00203 ± 0.00044 |  | 0.00131 ± 0.00028
21 | G40C U54G | 0.000126 ± 1.3e-05 | 0.000127 ± 3e-05 | 0.00251 ± 0.00031 | 0.000766 ± 0.00015 | 0.0025 ± 0.00059

Row | Variant | self-cleavage kobs at 40 uM GlcN6P (glucosamine-6-phosphate [1]) [s⁻¹] | self-cleavage kobs at 160 uM GlcN6P (glucosamine-6-phosphate [2]) [s⁻¹] | self-cleavage kobs at 10000 uM GlcN6P (glucosamine-6-phosphate [3]) [s⁻¹] | self-cleavage kobs at 640 uM GlcN6P (glucosamine-6-phosphate [4]) [s⁻¹] | self-cleavage kobs at 2500 uM GlcN6P (glucosamine-6-phosphate [5]) [s⁻¹]
22 | G43C U57A | < 1e-05 |  | < 1e-05 | < 1e-05 | 
23 | A42G U49C | < 1e-05 | < 1e-05 | < 1e-05 | < 1e-05 | < 1e-05
24 | A39U U55A U56C | 2.36e-05 ± 8.3e-06 |  | 0.00213 ± 0.00023 |  | 
25 | A42G U49G C50U U55G G60A | < 1e-05 |  | < 1e-05 |  | 
26 | G40A C50A C70G | < 1e-05 |  |  |  | 
27 | A42C C61G | < 1e-05 | < 1e-05 |  | < 1e-05 | < 1e-05
28 | A42C C61A | < 1e-05 | < 1e-05 | < 1e-05 |  | < 1e-05
29 | G43U U46A U57C C70A | < 1e-05 |  | < 1e-05 | < 1e-05 | 
30 | A42G U55G | 0.00175 ± 0.00035 |  | 0.0243 ± 0.0042 |  | 
31 | A42G G51A A52U | < 1e-05 |  |  |  | < 1e-05
32 | A39U G66U C67U | 3.54e-05 ± 1.2e-05 |  |  |  | 
33 | G40C C50U C58A C71G | < 1e-05 |  | < 1e-05 |  | 
34 | G41A C67G C70U | 4.65e-05 ± 2e-05 | 0.000107 ± 3.4e-05 | 0.00166 ± 0.00038 | 0.000188 ± 5.7e-05 | 0.000826 ± 0.00023
35 | A39G U54G | 0.00177 ± 0.00036 | 0.00227 ± 0.00056 |  | 0.00627 ± 0.0015 | 0.0305 ± 0.013
36 | G40U U54G | 0.000133 ± 1.9e-05 |  | 0.00364 ± 0.00066 | 0.00124 ± 0.00029 | 0.00192 ± 0.00049
37 | G40U U54A | 7.88e-05 ± 1.1e-05 | 0.000207 ± 2.7e-05 | 0.0025 ± 0.00054 | 0.000391 ± 5.1e-05 | 0.00192 ± 0.00039
38 | A42U G63U | < 1e-05 | < 1e-05 | < 1e-05 |  | < 1e-05
39 | G41A G62U C67G | < 1e-05 |  |  |  | 
40 | G40A A53G | 0.000243 ± 5.3e-05 |  | 0.0242 ± 0.0054 | 0.0022 ± 0.0005 | 0.00571 ± 0.0011
41 | A42U U69A | 0.00293 ± 0.00038 | 0.00511 ± 0.0011 | 0.101 ± 0.036 | 0.0164 ± 0.0051 | 0.0275 ± 0.012
42 | A42U U57C | < 1e-05 | < 1e-05 |  | < 1e-05 | 

Row | Variant | self-cleavage kobs at 40 uM GlcN6P (glucosamine-6-phosphate [1]) [s⁻¹] | self-cleavage kobs at 160 uM GlcN6P (glucosamine-6-phosphate [2]) [s⁻¹] | self-cleavage kobs at 10000 uM GlcN6P (glucosamine-6-phosphate [3]) [s⁻¹] | self-cleavage kobs at 640 uM GlcN6P (glucosamine-6-phosphate [4]) [s⁻¹] | self-cleavage kobs at 2500 uM GlcN6P (glucosamine-6-phosphate [5]) [s⁻¹]
43 | A42C G59C | < 1e-05 | < 1e-05 | < 1e-05 | < 1e-05 | < 1e-05
44 | G40C G43U C70A | < 1e-05 |  | < 1e-05 |  | 
45 | A42C C61U C71A | < 1e-05 |  |  |  | 
46 | A42C C61A G66U | < 1e-05 |  |  |  | < 1e-05
47 | G41U G60C | < 1e-05 | < 1e-05 | < 1e-05 | < 1e-05 | < 1e-05
48 | G41U G62A G63U | < 1e-05 |  | < 1e-05 |  | 
49 | G43U G44A A48G C58A U69A C71G | < 1e-05 | < 1e-05 | < 1e-05 |  | < 1e-05
50 | G41U U45C U54G C67U C71G | < 1e-05 | < 1e-05 |  | < 1e-05 | 
51 | G41C G44U U47G | < 1e-05 |  |  |  | 
52 | G41U G62U | < 1e-05 | < 1e-05 | < 1e-05 | < 1e-05 | < 1e-05
53 | G40U G63A | < 1e-05 | < 1e-05 | < 1e-05 | < 1e-05 | < 1e-05
54 | G40U G63C | < 1e-05 | < 1e-05 | < 1e-05 | < 1e-05 | < 1e-05
55 | A42C A64G | < 1e-05 | < 1e-05 |  | < 1e-05 | 
56 | G41U U65C | < 1e-05 | < 1e-05 | 2.23e-05 ± 7.2e-06 |  | 
57 | G40C A64C | < 1e-05 | < 1e-05 |  |  | 
58 | G43A C70G | < 1e-05 | < 1e-05 | < 1e-05 | < 1e-05 | < 1e-05
59 | A42C A53G | < 1e-05 | < 1e-05 |  |  | 
60 | A39U G40U C70U | 9.82e-05 ± 1.8e-05 | 0.000392 ± 6.8e-05 | 0.00219 ± 0.00054 | 0.000466 ± 7.4e-05 | 0.00127 ± 0.0003
61 | G41A G43C G62U | < 1e-05 |  | < 1e-05 |  | 
62 | G41C U45G | < 1e-05 |  | 9.46e-05 ± 1.7e-05 |  | 
63 | G41C G51A A52U C67A | < 1e-05 |  | < 1e-05 |  | 

Row | Variant | self-cleavage kobs at 40 uM GlcN6P (glucosamine-6-phosphate [1]) [s⁻¹] | self-cleavage kobs at 160 uM GlcN6P (glucosamine-6-phosphate [2]) [s⁻¹] | self-cleavage kobs at 10000 uM GlcN6P (glucosamine-6-phosphate [3]) [s⁻¹] | self-cleavage kobs at 640 uM GlcN6P (glucosamine-6-phosphate [4]) [s⁻¹] | self-cleavage kobs at 2500 uM GlcN6P (glucosamine-6-phosphate [5]) [s⁻¹]
64 | A42U G60U | < 1e-05 | < 1e-05 |  | < 1e-05 | 
65 | G43A U57A | < 1e-05 |  | < 1e-05 |  | < 1e-05
66 | G43U G59A G60C | < 1e-05 |  | < 1e-05 |  | < 1e-05
67 | A42U G62U C71G | < 1e-05 |  | < 1e-05 |  | 
68 | G41A A48U C68A | < 1e-05 |  | < 1e-05 | < 1e-05 | < 1e-05
69 | A39G U45C C67U | 0.000136 ± 5.9e-05 |  | 0.00434 ± 0.0011 |  | 
70 | A42U C68A | < 1e-05 | < 1e-05 | < 1e-05 | < 1e-05 | 
71 | G43U C68A | 0.00235 ± 0.00036 | 0.00333 ± 0.00054 | 0.0761 ± 0.024 | 0.0194 ± 0.0032 | 0.0175 ± 0.005
72 | G40C C68A | < 1e-05 | < 1e-05 | < 1e-05 | < 1e-05 | < 1e-05
73 | A39G U65G C67G | 0.000107 ± 2.4e-05 |  | 0.00497 ± 0.0012 |  | 
74 | G43U A64C | < 1e-05 | < 1e-05 | < 1e-05 | < 1e-05 | 
75 | A42U C58A | < 1e-05 | < 1e-05 |  | < 1e-05 | 
76 | A42C G51A | < 1e-05 |  | < 1e-05 |  | < 1e-05
77 | G43U C61U | < 1e-05 | < 1e-05 | < 1e-05 | < 1e-05 | < 1e-05
78 | G43U C61A | < 1e-05 | < 1e-05 | < 1e-05 | < 1e-05 | < 1e-05
79 | G43U C61G | < 1e-05 |  | < 1e-05 | < 1e-05 | < 1e-05
80 | G43U A48C | < 1e-05 | < 1e-05 | < 1e-05 | < 1e-05 | < 1e-05
81 | G40C A48C | < 1e-05 | < 1e-05 |  | < 1e-05 | 
82 | A39G G40A | 0.000261 ± 8e-05 |  |  | 0.00167 ± 0.00076 | 0.00889 ± 0.0023
83 | A42G G43U | < 1e-05 | < 1e-05 |  | < 1e-05 | < 1e-05
